Laboratory results published in patent US20080286815A1, “SPECTROPHOTOMETRIC ASSAY FOR HUMAN HISTONE DEACETYLASE 8” (THE UNIVERSITY OF AKRON, priority 2007, published 2008).

Substrate: CSCC[C@H](NC(=O)[C@H](CC(C)C)NC(=O)[C@H](CCCC/N=C(/C)S)NC(=O)[C@H](CCCCN)NC(=O)[C@H](Cc1c[nH]cn1)NC(=O)[C@H](CCCN=C(N)N)NC(=O)[C@H](CO)NC(=O)[C@@H](NC(=O)[C@H](CO)NC(=O)[C@H](CCC(N)=O)NC(=O)CNC(=O)[C@H](CCCCN)NC(=O)[C@@H](N)CCCCN)[C@@H](C)O)C(=O)N[C@@H](Cc1ccccc1)C(=O)N[C@@H](CCCCN)C(=O)N[C@H](C(=O)N[C@@H](CCC(=O)O)C(=O)NCC(=O)O)[C@@H](C)O
Assay: DTNB-based enzymatic assay with purified HDAC8
Assay type: biochemical, human
Conditions: other: peptide as in vitro HDAC8 substrate, 375 nM HDAC8, room temperature, 1 hour, pH 6.8
Experimental: DTNB-based enzymatic assay. The DTNB data shown in FIG. 4 was generated using the following procedure. A second portion (300 µL) of the above HDAC8 assay mixture was quenched with 600 µL of the stop solution: 3.2 M guanidinium chloride in 100 mM of sodium phosphate (pH 6.8), and was analyzed by the DTNB-based assay procedure according to the invention, i.e. 60 min after the quench and DTNB (100 µL) addition, A412 was recorded for each sample derived at different time points of the same assay reaction. Again, the same assay protocol was used when the HeLa nuclear extracts were used instead of human HDAC8. To measure the kinetic parameters for the thioacetyl-lysine p53 peptide as an in vitro HDAC8 substrate, all the assay reactions contained 375 nM of HDAC8, a range of substrate concentrations varied around the Km value, and were allowed to proceed at room temperature for 1 hour before quenching. Reaction velocities were determined under initial condition (substrate turnover <10%). This experiment was performed twice, and each duplicate measurement agreed within 20%. By using a non-linear least squares approach with the computer program Kaleidagraph (Reading, Pa., USA), kinetic parameters (kcat and Km) were derived from the Michaelis-Menten plot based on the experimental data.
Assay with purified HDAC8. […]

B1: human HDAC8 (Homo sapiens) (protein)
chain: MEEPEEPADSGQSLVPVYIYSPEYVSMCDSLAKIPKRASMVHSLIEAYALHKQMRIVKPKVASMEEMATFHTDAYLQHLQKVSQEGDDDHPDSIEYGLGYDCPATEGIFDYAAAIGGATITAAQCLIDGMCKVAINWSGGWHHAKKDEASGFCYLNDAVLGILRLRRKFERILYVDLDLHHGDGVEDAFSFTSKVMTVSLHKFSPGFFPGTGDVSDVGLGKGRYYSVNVPIQDGIQDEKYYQICESVLKEVYQAFNPKAVVLQLGADTIAGDPMCSFNMTPVGIGKCLKYILQWQLATLILGGGGYNLANTARCWTYLTGVILGKTLSSEIPDHEFFTAYGPDYVLEITPSCRPDRNEPHRIQQILNYIKGNLKHVV
- Km: 33.7 ± 7.2 µM
- kcat: 0.00433 ± 0.00033 s⁻¹
